Reference: patent US7799901B2, “Modulators of the function of FAS receptors and other proteins” (Yeda Research and Development Co. Ltd., priority 1995, dated 2010)

How the values were obtained:
[1] = system: fragment of MORT-1 corresponding to residues 1-117; experiment: Two-hybrid test (FIG. 1), binding to MORT-1 residues 1-117
From the text: (§1) To isolate proteins interacting with the intracellular domain of the FAS-R, the yeast two-hybrid system was used (Fields and Song, 1989). […] In this system, the genes for the candidate interacting proteins are cloned into separate expression vectors. In one expression vector, the sequence of the one candidate protein is cloned in phase with the sequence of the GAL4 DNA-binding domain to generate a hybrid protein with the GAL4 DNA-binding-domain, and in the other vector, the sequence of the second candidate protein is cloned in phase with the sequence of the GAL4 activation domain to generate a hybrid protein with the GAL4-activation domain. The two hybrid vectors are then co-transformed into a yeast host strain having a lacZ or HIS3 reporter gene under the control of upstream GAL4 binding sites. Only those transformed host cells (cotransformants) in which the two hybrid proteins are expressed and are capable of interacting with each other, will be capable of expressing the reporter gene. In the case of the lacZ reporter gene, host cells expressing this gene will become blue in color when X-gal is added to the cultures. […]
(§2) In FIG. 1, there is depicted the interaction of the proteins encoded by the Gal4 DNA binding domain and activation-domain constructs (pGBT9 and pGAD-GH) within transfected SFY526 yeasts as assessed by β-galactosidase expression filter assay. […]

FAS-IC = molecular target: T1, FAS-IC (Homo sapiens, UniProt P25445); experiment: Two-hybrid test (FIG. 1), binding of MORT-1 fragments to FAS-IC
T1 construct: the FAS-IC extends-from amino acid residues 175-319 of the intact FAS-R; expressed in transfected cells; host or cells: SFY526 yeast
T1 sequence (P25445 191-335): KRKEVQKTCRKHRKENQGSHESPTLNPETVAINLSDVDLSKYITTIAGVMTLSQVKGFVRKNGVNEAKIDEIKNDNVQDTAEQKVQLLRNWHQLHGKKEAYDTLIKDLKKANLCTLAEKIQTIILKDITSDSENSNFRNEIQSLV
From the text: as §1, §2

[2] = system: FAS-R mediated cell death in HeLa cells; experiment: Anti-FAS-R antibody (CH-11) induced death of HeLa cells co-expressing FAS-R, neutral-red uptake; type: cell-based; details: co-expression with human FAS-R in HeLa HtTA-1; CH-11 antibody plus 10 μg/ml cycloheximide
From the text: In another set of experiments to analyze the region of the MORT-1 protein involved in the binding to the FAS-IC, the following proteins were expressed transiently in HeLa cells that contain a tetracycline-controlled transactivator (HtTA-1), using a tetracycline-controlled expression vector (pUHD10-3): Human FAS-R alone; Human FAS-R as well as the N-terminal part of MORT-1 (amino acids 1-117, the “MORT-1 head”); Human FAS-R as well as the C-terminal part of MORT-1, which contains its ‘death domain’ homology region (amino acids 130-245, the “MORT-1 DD”); FLAG-55.11 (amino acids 309-900 of protein 55.11 fused at the N-terminus to the FLAG octapeptide, the protein 55.11 being a p55-IC-specific binding protein. Twelve hours after transfection, the cells were trypsinized and re-seeded at a concentration of 30,000 cells/well. After 24 hrs further incubation, the cells were treated for 6 hrs with a monoclonal antibody against the extracellular domain of FAS-R (monoclonal antibody CH-11, Oncor, Gaithersburg, Md., USA) at various concentrations (0.001-10 μg/ml monoclonal antibody), in the presence of 10 μg/ml cycloheximide. Cell viability was then determined by the neutral-red uptake assay and the results were presented in terms of % viable cells as compared to cells that had been incubated with cycloheximide alone (in the absence of anti-FAS-R monoclonal antibody CH-11). […]

MORT-1 = molecular target: T2, MORT-1 (Homo sapiens, UniProt Q13158, G32V); experiment: Two-hybrid test (FIG. 1), binding to full-length MORT-1; parameters: expressed in transfected cells; host or cells: SFY526 yeast
T2 sequence (Q13158 with tags, fused parts or gaps G32V): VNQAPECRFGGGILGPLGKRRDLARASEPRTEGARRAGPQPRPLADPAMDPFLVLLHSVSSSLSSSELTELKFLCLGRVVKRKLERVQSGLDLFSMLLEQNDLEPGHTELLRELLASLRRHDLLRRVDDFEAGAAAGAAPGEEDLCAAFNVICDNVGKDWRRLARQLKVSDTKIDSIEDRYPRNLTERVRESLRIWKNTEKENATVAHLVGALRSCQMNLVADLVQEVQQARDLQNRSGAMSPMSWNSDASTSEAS
From the text: To isolate proteins interacting with the intracellular domain of the FAS-R, the yeast two-hybrid system was used (Fields and Song, 1989). […] In this system, the genes for the candidate interacting proteins are cloned into separate expression vectors. In one expression vector, the sequence of the one candidate protein is cloned in phase with the sequence of the GAL4 DNA-binding domain to generate a hybrid protein with the GAL4 DNA-binding-domain, and in the other vector, the sequence of the second candidate protein is cloned in phase with the sequence of the GAL4 activation domain to generate a hybrid protein with the GAL4-activation domain. The two hybrid vectors are then co-transformed into a yeast host strain having a lacZ or HIS3 reporter gene under the control of upstream GAL4 binding sites. Only those transformed host cells (cotransformants) in which the two hybrid proteins are expressed and are capable of interacting with each other, will be capable of expressing the reporter gene. In the case of the lacZ reporter gene, host cells expressing this gene will become blue in color when X-gal is added to the cultures.
(b) retransforming the plasmid DNA and original FAS-IC hybrid plasmid and control plasmids described in (a) into yeast host cells of strain SFY526 and determining the LACZ^+ activity (effectivity of β-gal formation, i.e., blue color formation).
In FIG. 1, there is depicted the interaction of the proteins encoded by the Gal4 DNA binding domain and activation-domain constructs (pGBT9 and pGAD-GH) within transfected SFY526 yeasts as assessed by β-galactosidase expression filter assay. The DNA-binding-domain constructs included four constructs of the human Fas-IC, four constructs of the mouse Fas-IC including two full-length constructs having […] or Ile to Ala replacement mutations at position 225 (I225N and I225A, respectively), and three MORT-1 constructs, all of which are shown schematically on the left hand side of FIG. 1. […]

binding to MORT-1 residues 1-117 in two-hybrid test [1]: does not bind | binding to FAS-IC / FAS-R in two-hybrid test (FAS-IC): does not bind | binding to full-length MORT-1 in two-hybrid test (MORT-1): binds
B1: fragment of MORT-1 corresponding to residues 1-117: N-terminal part of MORT-1, amino acids 1-117 (protein)
chain: VNQAPECRFGGGILGPLGKRRDLARASEPRTEGARRAGPQPRPLADPAMDPFLVLLHSVSSSLSSSELTELKFLCLGRVVKRKLERVQSGLDLFSMLLEQNDLEPGHTELLRELLAS
effect on FAS-induced (FAS-R mediated) cell death [2]: does not interfere
